According to the supplement of paper PMC5998384:

Assays:
HeLa Kyoto [1] = experiment: solubility in G1/S (NP-40 vs SDS abundance) (log2 ratio); higher = more soluble; details: cell cycle stage: G1/S
HeLa Kyoto [2] = experiment: thermal stability score vs G1/S (z-score of summed log2 fold changes over temperatures); higher = more thermally stable than in G1/S
HeLa Kyoto [3] = experiment: solubility change mitosis vs G1/S (difference of NP-40 vs SDS log2 ratios) (log2 ratio difference); higher = more soluble in mitosis
HeLa Kyoto [4] = experiment: melting temperature (median over replicates), in situ; higher = more thermally stable
[5] = cell cycle stage: early G1 (4.5 h after nocodazole release)
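Throughout, for melting temperature (median over replicates), in situ: HeLa Kyoto cells synchronized by double thymidine or nocodazole block, proteins quantified by TMT10plex mass spectrometry, three independent biological replicates.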
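Throughout, for solubility change mitosis vs G1/S (difference of NP-40 vs SDS log2 ratios): synchronized HeLa Kyoto cells (double thymidine block for G1/S, nocodazole release for mitosis), protein amounts in NP-40 versus SDS lysates quantified by mass spectrometry, three biological replicates.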
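Throughout, for solubility in G1/S (NP-40 vs SDS abundance): HeLa Kyoto cells arrested at G1/S by double thymidine block, proteins quantified by TMT10plex mass spectrometry in mild NP-40 versus SDS extracts, three biological replicates.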
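Throughout, for thermal stability score vs G1/S (z-score of summed log2 fold changes over temperatures): synchronized HeLa Kyoto cells, proteins quantified by TMT10plex mass spectrometry, three biological replicates, mitosis taken 0.5 h after nocodazole release, G1/S directly after double thymidine block.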

Sequence of COPE (chain, as listed by the source): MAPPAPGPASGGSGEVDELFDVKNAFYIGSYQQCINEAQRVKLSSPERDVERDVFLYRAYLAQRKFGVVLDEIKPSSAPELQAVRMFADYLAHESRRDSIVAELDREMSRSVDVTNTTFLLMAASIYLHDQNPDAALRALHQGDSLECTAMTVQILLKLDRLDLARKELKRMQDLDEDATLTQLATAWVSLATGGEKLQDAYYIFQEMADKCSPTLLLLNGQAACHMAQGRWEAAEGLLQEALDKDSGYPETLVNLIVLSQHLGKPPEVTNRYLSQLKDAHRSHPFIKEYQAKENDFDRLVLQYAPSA

Substance | solubility in G1/S (log2) (HeLa Kyoto [1]) | thermal stability score (HeLa Kyoto [2]; [5]) | thermal stability score (HeLa Kyoto [2]; cell cycle stage: mitosis) | solubility change mitosis (log2) (HeLa Kyoto [3]) | melting temperature (HeLa Kyoto [4]; cell cycle stage: G1/S) [°C] | melting temperature (HeLa Kyoto [4]; cell cycle stage: mitosis) [°C]
MNPEKDFAPLTPNIVRALNDKLYEKRKVAALEIEKLVREFVAQNNTVQIKHVIQTLSQEFALSQHPHSRKGGLIGLAACSIALGKDSGLYLKELIEPVLTCFNDADSRLRYYACEALYNIVKVARGAVLPHFNVLFDGLSKLAADPDPNVKSGSELLDRLLKDIVTESNKFDLVSFIPLLRERIYSNNQYARQFIISWILVLESVPDINLLDYLPEILDGLFQILGDNGKEIRKMCEVVLGEFLKEIKKNPSSVKFAEMANILVIHCQTTDDLIQLTAMCWMREFIQLAGRVMLPYSSGILTAVLPCLAYDDRKKSIKEVANVCNQSLMKLVTPEDDELDELRPGQRQAEPTPDDALPKQEGTASGGPDGSCDSSFSSGISVFTAASTERAPVTLHLDGIVQVLNCHLSDTAIGMMTRIAVLKWLYHLYIKTPRKMFRHTDSLFPILLQTLSDESDEVILKDLEVLAEIASSPAGQTDDPGPLDGPDLQASHSELQVPTPGRAGLLNTSGTKGLECSPSTPTMNSYFYKFMINLLKRFSSERKLLEVRGPFIIRQLCLLLNAENIFHSMADILLREEDLKFASTMVHALNTILLTSTELFQLRNQLKDLKTLESQNLFCCLYRSWCHNPVTTVSLCFLTQNYRHAYDLIQKFGDLEVTVDFLAEVDKLVQLIECPIFTYLRLQLLDVKNNPYLIKALYGLLMLLPQSSAFQLLSHRLQCVPNPELLQTEDSLKAAPKSQKADSPSIDYAELLQHFEKVQNKHLEVRHQRSGRGDHLDRRVVL [VAC14] | 0.0329 | -1.83 | -1.68 | -0.133 | 53.3 | 53.9
MMHFKSGLELTELQNMTVPEDDNISNDSNDFTEVENGQINSKFISDRESRRSLTNSHLEKKKCDEYIPGTTSLGMSVFNLSNAIMGSGILGLAFALANTGILLFLVLLTSVTLLSIYSINLLLICSKETGCMVYEKLGEQVFGTTGKFVIFGATSLQNTGAMLSYLFIVKNELPSAIKFLMGKEETFSAWYVDGRVLVVIVTFGIILPLCLLKNLGYLGYTSGFSLSCMVFFLIVVIYKKFQIPCIVPELNSTISANSTNADTCTPKYVTFNSKTVYALPTIAFAFVCHPSVLPIYSELKDRSQKKMQMVSNISFFAMFVMYFLTAIFGYLTFYDNVQSDLLHKYQSKDDILILTVRLAVIVAVILTVPVLFFTVRSSLFELAKKTKFNLCRHTVVTCILLVVINLLVIFIPSMKDIFGVVGVTSANMLIFILPSSLYLKITDQDGDKGTQRIWAALFLGLGVLFSLVSIPLVIYDWACSSSSDEGH [SLC38A1] | -0.379 | -1.68 | -3.89 | -0.24 | 57.8 | 59.4
MPLGLGRRKKAPPLVENEEAEPGRGGLGVGEPGPLGGGGSGGPQMGLPPPPPALRPRLVFHTQLAHGSPTGRIEGFTNVKELYGKIAEAFRLPTAEVMFCTLNTHKVDMDKLLGGQIGLEDFIFAHVKGQRKEVEVFKSEDALGLTITDNGAGYAFIKRIKEGSVIDHIHLISVGDMIEAINGQSLLGCRHYEVARLLKELPRGRTFTLKLTEPRKAFDMISQRSAGGRPGSGPQLGTGRGTLRLRSRGPATVEDLPSAFEEKAIEKVDDLLESYMGIRDTELAATMVELGKDKRNPDELAEALDERLGDFAFPDEFVFDVWGAIGDAKVGRY [GIPC1] | 0.314 | -0.363 | 1.49 | -0.156 | 49.5 | 48.7
COPE | 0.212 | -0.526 | -0.936 | 0.0106 | 50.3 | 50.9
MVPSRRTWNLGATPSLRGLWRVGRAPEPEPGMARPAPAPASPAARPFPHTGPGRLRTGRGKDTPVCGDEDSSARSAARPALAQCRALSVDWAGPGSPHGLYLTLQVEHLKEKLISQAQEVSRLRSELGGTDLEKHRDLLMVENERLRQEMRRCEAELQELRTKPAGPCPGCEHSQESAQLRDKLSQLQLEMAESKGMLSELNLEVQQKTDRLAEVELRLKDCLAEKAQEEERLSRRLRDSHETIASLRAQSPPVKYVIKTVEVESSKTKQALSESQARNQHLQEQVAMQRQVLKEMEQQLQSSHQLTARLRAQIAMYESELERAHGQMLEEMQSLEEDKNRAIEEAFARAQVEMKAVHENLAGVRTNLLTLQPALRTLTNDYNGLKRQVRGFPLLLQEALRSVKAEIGQAIEEVNSNNQELLRKYRRELQLRKKCHNELVRLKGNIRVIARVRPVTKEDGEGPEATNAVTFDADDDSIIHLLHKGKPVSFELDKVFSPQASQQDVFQEVQALVTSCIDGFNVCIFAYGQTGAGKTYTMEGTAENPGINQRALQLLFSEVQEKASDWEYTITVSAAEIYNEVLRDLLGKEPQEKLEIRLCPDGSGQLYVPGLTEFQVQSVDDINKVFEFGHTNRTTEFTNLNEHSSRSHALLIVTVRGVDCSTGLRTTGKLNLVDLAGSERVGKSGAEGSRLREAQHINKSLSALGDVIAALRSRQGHVPFRNSKLTYLLQDSLSGDSKTLMVVQVSPVEKNTSETLYSLKFAERVRSVELGPGLRRAELGSWSSQEHLEWEPACQTPQPSARAHSAPSSGTSSRPGSIRRKLQPSGKSRPLPV [KIFC3] | -0.0691 | 0.116 | 0.946 | 0.169 | 49.1 | 47.3
MAAVLNAERLEVSVDGLTLSPDPEERPGAEGAPLLPPPLPPPSPPGSGRGPGASGEQPEPGEAAAGGAAEEARRLEQRWGFGLEELYGLALRFFKEKDGKAFHPTYEEKLKLVALHKQVLMGPYNPDTCPEVGFFDVLGNDRRREWAALGNMSKEDAMVEFVKLLNRCCHLFSTYVASHKIEKEEQEKKRKEEEERRRREEEERERLQKEEEKRRREEEERLRREEEERRRIEEERLRLEQQKQQIMAALNSQTAVQFQQYAAQQYPGNYEQQQILIRQLQEQHYQQYMQQLYQVQLAQQQAALQKQQEVVVAGSSLPTSSKVNATVPSNMMSVNGQAKTHTDSSEKELEPEAAEEALENGPKESLPVIAAPSMWTRPQIKDFKEKIQQDADSVITVGRGEVVTVRVPTHEEGSYLFWEFATDNYDIGFGVYFEWTDSPNTAVSVHVSESSDDDEEEEENIGCEEKAKKNANKPLLDEIVPVYRRDCHEEVYAGSHQYPGRGVYLLKFDNSYSLWRSKSVYYRVYYTR [ACBD3] | -0.138 | -1.26 | -0.756 | -0.137 | 50.4 | 50.2
MHPPETTTKMASVRFMVTPTKIDDIPGLSDTSPDLSSRSSSRVRFSSRESVPETSRSEPMSEMSGATTSLATVALDPPSDRTSHPQDVIEDLSQNSITGEHSQLLDDGHKKARNAYLNNSNYEEGDEYFDKNLALFEEEMDTRPKVSSLLNRMANYTNLTQGAKEHEEAENITEGKKKPTKTPQMGTFMGVYLPCLQNIFGVILFLRLTWVVGTAGVLQAFAIVLICCCCTMLTAISMSAIATNGVVPAGGSYFMISRALGPEFGGAVGLCFYLGTTFAAAMYILGAIEIFLVYIVPRAAIFHSDDALKESAAMLNNMRVYGTAFLVLMVLVVFIGVRYVNKFASLFLACVIVSILAIYAGAIKSSFAPPHFPVCMLGNRTLSSRHIDVCSKTKEINNMTVPSKLWGFFCNSSQFFNATCDEYFVHNNVTSIQGIPGLASGIITENLWSNYLPKGEIIEKPSAKSSDVLGSLNHEYVLVDITTSFTLLVGIFFPSVTGIMAGSNRSGDLKDAQKSIPIGTILAILTTSFVYLSNVVLFGACIEGVVLRDKFGDAVKGNLVVGTLSWPSPWVIVIGSFFSTCGAGLQSLTGAPRLLQAIAKDNIIPFLRVFGHSKANGEPTWALLLTAAIAELGILIASLDLVAPILSMFFLMCYLFVNLACALQTLLRTPNWRPRFRYYHWALSFMGMSICLALMFISSWYYAIVAMVIAGMIYKYIEYQGAEKEWGDGIRGLSLSAARFALLRLEEGPPHTKNWRPQLLVLLKLDEDLHVKHPRLLTFASQLKAGKGLTIVGSVIVGNFLENYGEALAAEQTIKHLMEAEKVKGFCQLVVAAKLREGISHLIQSCGLGGMKHNTVVMGWPNGWRQSEDARAWKTFIGTVRVTTAAHLALLVAKNISFFPSNVEQFSEGNIDVWWIVHDGGMLMLLPFLLKQHKVWRKCSIRIFTVAQLEDNSIQMKKDLATFLYHLRIEAEVEVVEMHDSDISAYTYERTLMMEQRSQMLRHMRLSKTERDREAQLVKDRNSMLRLTSIGSDEDEETETYQEKVHMTWTKDKYMASRGQKAKSMEGFQDLLNMRPDQSNVRRMHTAVKLNEVIVNKSHEAKLVLLNMPGPPRNPEGDENYMEFLEVLTEGLERVLLVRGGGSEVITIYS [SLC12A6] | -0.0182 | -0.231 | -0.0357 | 0.00121 | 54.8 | 54.4
MPGPAAGSRARVYAEVNSLRSREYWDYEAHVPSWGNQDDYQLVRKLGRGKYSEVFEAINITNNERVVVKILKPVKKKKIKREVKILENLRGGTNIIKLIDTVKDPVSKTPALVFEYINNTDFKQLYQILTDFDIRFYMYELLKALDYCHSKGIMHRDVKPHNVMIDHQQKKLRLIDWGLAEFYHPAQEYNVRVASRYFKGPELLVDYQMYDYSLDMWSLGCMLASMIFRREPFFHGQDNYDQLVRIAKVLGTEELYGYLKKYHIDLDPHFNDILGQHSRKRWENFIHSENRHLVSPEALDLLDKLLRYDHQQRLTAKEAMEHPYFYPVVKEQSQPCADNAVLSSGLTAAR [CSNK2A2] | -0.244 | 1.94 | 2.34 | 0.0267 | 50.7 | 50.3
MGDPSKQDILTIFKRLRSVPTNKVCFDCGAKNPSWASITYGVFLCIDCSGSHRSLGVHLSFIRSTELDSNWSWFQLRCMQVGGNASASSFFHQHGCSTNDTNAKYNSRAAQLYREKIKSLASQATRKHGTDLWLDSCVVPPLSPPPKEEDFFASHVSPEVSDTAWASAIAEPSSLTSRPVETTLENNEGGQEQGPSVEGLNVPTKATLEVSSIIKKKPNQAKKGLGAKKGSLGAQKLANTCFNEIEKQAQAADKMKEQEDLAKVVSKEESIVSSLRLAYKDLEIQMKKDEKMNISGKKNVDSDRLGMGFGNCRSVISHSVTSDMQTIEQESPIMAKPRKKYNDDSDDSYFTSSSSYFDEPVELRSSSFSSWDDSSDSYWKKETSKDTETVLKTTGYSDRPTARRKPDYEPVENTDEAQKKFGNVKAISSDMYFGRQSQADYETRARLERLSASSSISSADLFEEPRKQPAGNYSLSSVLPNAPDMAQFKQGVRSVAGKLSVFANGVVTSIQDRYGS [ARFGAP3] | 0.135 | -0.314 | 0.332 | -0.125 | 51.3 | 51.4
MLAFAARTVVKPLGFLKPFSLMKASSRFKAHQDALPRLPVPPLQQSLDHYLKALQPIVSEEEWAHTKQLVDEFQASGGVGERLQKGLERRARKTENWLSEWWLKTAYLQYRQPVVIYSSPGVMLPKQDFVDLQGQLRFAAKLIEGVLDFKVMIDNETLPVEYLGGKPLCMNQYYQILSSCRVPGPKQDTVSNFSKTKKPPTHITVVHNYQFFELDVYHSDGTPLTADQIFVQLEKIWNSSLQTNKEPVGILTSNHRNSWAKAYNTLIKDKVNRDSVRSIQKSIFTVCLDATMPRVSEDVYRSHVAGQMLHGGGSRLNSGNRWFDKTLQFIVAEDGSCGLVYEHAAAEGPPIVTLLDYVIEYTKKPELVRSPLVPLPMPKKLRFNITPEIKSDIEKAKQNLSIMIQDLDITVMVFHHFGKDFPKSEKLSPDAFIQMALQLAYYRIYGQACATYESASLRMFHLGRTDTIRSASMDSLTFVKAMDDSSVTEHQKVELLRKAVQAHRGYTDRAIRGEAFDRHLLGLKLQAIEDLVSMPDIFMDTSYAIAMHFHLSTSQVPAKTDCVMFFGPVVPDGYGVCYNPMEAHINFSLSAYNSCAETNAARLAHYLEKALLDMRALLQSHPRAKL [CRAT] | -0.0625 | 1.13 | 1.4 | -0.142 | 49.4 | 49.4
